Assay results published in PMC9931023 (Journal of Food and Drug Analysis, 2021).

Target: p27 (Kip1), endogenous in breast tissue (human (endogenous in breast tissue …, UniProt P46527 1-198))
Test: FRET or BRET

p27 (Kip1), endogenous in breast tissue (human, sequence (P46527 whole entry): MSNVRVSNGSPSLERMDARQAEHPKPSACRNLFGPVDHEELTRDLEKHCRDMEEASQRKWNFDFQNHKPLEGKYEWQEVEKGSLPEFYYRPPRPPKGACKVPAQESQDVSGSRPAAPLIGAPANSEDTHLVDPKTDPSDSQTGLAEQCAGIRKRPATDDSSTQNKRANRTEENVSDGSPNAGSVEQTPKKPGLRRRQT

B1: salt-induced kinase-3 (SIK3), endogenous in breast tissue (enzyme, UniProt Q9Y2K2-5 1-1321, looked up)
chain: MAAAAASGAGGAAGAGTGGAGPAGRLLPPPAPGSPAAPAAVSPAAGQPRPPAPASRGPMPARIGYYEIDRTIGKGNFAVVKRATHLVTKAKVAIKIIDKTQLDEENLKKIFREVQIMKMLCHPHIIRLYQVMETERMIYLVTEYASGGEIFDHLVAHGRMAEKEARRKFKQIVTAVYFCHCRNIVHRDLKAENLLLDANLNIKIADFGFSNLFTPGQLLKTWCGSPPYAAPELFEGKEYDGPKVDIWSLGVVLYVLVCGALPFDGSTLQNLRARVLSGKFRIPFFMSTECEHLIRHMLVLDPNKRLSMEQICKHKWMKLGDADPNFDRLIAECQQLKEERQVDPLNEDVLLAMEDMGLDKEQTLQSLRSDAYDHYSAIYSLLCDRHKRHKTLRLGALPSMPRALAFQAPVNIQAEQAGTAMNISVPQVQLINPENQIVEPDGTLNLDSDEGEEPSPEALVRYLSMRRHTVGVADPRTEVMEDLQKLLPGFPGVNPQAPFLQVAPNVNFMHNLLPMQNLQPTGQLEYKEQSLLQPPTLQLLNGMGPLGRRASDGGANIQLHAQQLLKRPRGPSPLVTMTPAVPAVTPVDEESSDGEPDQEAVQSSTYKDSNTLHLPTERFSPVRRFSDGAASIQAFKAHLEKMGNNSSIKQLQQECEQLQKMYGGQIDERTLEKTQQQHMLYQQEQHHQILQQQIQDSICPPQPSPPLQAACENQPALLTHQLQRLRIQPSSPPPNHPNNHLFRQPSNSPPPMSSAMIQPHGAASSSQFQGLPSRSAIFQQQPENCSSPPNVALTCLGMQQPAQSQQVTIQVQEPVDMLSNMPGTAAGSSGRGISISPSAGQMQMQHRTNLMATLSYGHRPLSKQLSADSAEAHSLNVNRFSPANYDQAHLHPHLFSDQSRGSPSSYSPSTGVGFSPTQALKVPPLDQFPTFPPSAHQQPPHYTTSALQQALLSPTPPDYTRHQQVPHILQGLLSPRHSLTGHSDIRLPPTEFAQLIKRQQQQRQQQQQQQQQQEYQELFRHMNQGDAGSLAPSLGGQSMTERQALSYQNADSYHHHTSPQHLLQIRAQECVSQASSPTPPHGYAHQPALMHSESMEEDCSCEGAKDGFQDSKSSSTLTKGCHDSPLLLSTGGPGDPESLLGTVSHAQELGIHPYGHQPTAAFSKNKVPSREPVIGNCMDRSSPGQAVELPDHNGLGYPARPSVHEHHRPRALQRHHTIQNSDDAYVQLDNLPGMSLVAGKALSSARMSDAVLSQSSLMGSQQFQDGENEECGASLGGHEHPDLSDGSQHLNSSCYPSTCITDILLSYKHPEVSFSMEQAGV
- FRET activity (fold): 25.2 fold
